# Measured values: the DeepSol protein solubility set
# Assay: soluble on expression in E. coli; label from the status in PepcDB or PDB records
row,Sequence,soluble on expression in E. coli
1,MSQPCPCGSADEYSLCCGRIVSGERVAPDPSHLMRSRYCAFVMKDADYLIKSWHPTCNAAAFRDDIIAGFANTRWLGLTIFEHTWSEAENTGYVSFIARFSEQGKNGAIIERSRFIKENGQWYYIDGTRPQLGRNDPCPCGSGKKFKKCCGQ,not soluble
2,MLTEKTKKELIRLSKVNNYIIKVETNQNFKHQSKCGDQILFQIIETNNGKFNLKHHASGCIVLLASANALNKLCNNKAKSEILNLVQKVINSNFANLDEIDVSLKIFNVFTNTNRKDCFLLPYKSLKDSLESYKPLRRTIRLEHHHHHH,not soluble
3,SPSPWGWFAVTACGAQRNNFEEPVALQEMDTSNGVLLPFYDPDSSIVYLCGKGDSSIRYFEITDEPPFVHYLNTFSSKEPQRGMGFMPKRGLDVSKCEIARFYKLHERKCEPIIMTVPRKSDLFQDDLYPDTPGPEPALEADEWLSGQDAEPVLISLRDGYVPPKHRELRVTKRNILDVRPPSGPRRSQSASDAPLSQHTLETLLEEIKALRERVQAQEQRITALENMLCELVDGTD,soluble
4,MKTAIVYYSQHHGNTKKLLDAIAIVDDVTLIDVTKHTAYDLNEFNLIGFASGIYFQKFSKKVLDFAKNNLPFNKKVFFIYTCGIKFPSYTVAIRAVVKEKNADIVGEYGCPGFDTFGPFKIVGGIRKGRPNENDIAKAVQFFRGILKLEHHHHHH,soluble
5,MSLHEFQTDSKNKHKVDVHIGIYAPFSSHSAFIGRNILAAMEMGSERLQSSDIHYSFYTLDQLPKNKNAGLVLQKFIDTHHINVLVTGGKETGLIAAPIAKKNNLIHFSLTNNTEVADGRNNFIVWSPAYDQAKVLVNELKRQQVHHLGIITANQPSSTALTHSVIKQLQSDSHIDVAASEYFEPGNKDFSRLTNRIKRKNADMYLVMASPEDIKLIQEQMEADKQHVPITSIVERATPEVVKVFEGQWYVDSHEMQPDFINEFKQNYLNYPVTEAGYAFDLFQLLNKSIVMAIRTQGSPTTSQEVVHQLHDIANGTGVMGTMVLDSKGSLFTKSEVKTVKNGEIHTVEGHHHHHH,soluble
6,MSKRLPPLNALRVFDAAARHLSFTRAAEELFVTQAAVSHQIKSLEDFLGLKLFRRRNRSLLLTEEGQSYFLDIKEIFSQLTEATRKLQARSAKGALTVSLLPSFAIHWLVPRLSSFNSAYPGIDVRIQAVDRQEDKLADDVDVAIFYGRGNWPGLRVEKLYAEYLLPVCSPLLLTGEKPLKTPEDLAKHTLLHDASRRDWQTYTRQLGLNHINVQQGPIFSHSAMVLQAAIHGQGVALANNVMAQSEIEAGRLVCPFNDVLVSKNAFYLVCHDSQAELGKIAAFRQWILAKAAAEQEKFRFRYEQ,soluble
7,FVNVGERTNVTGSKMFARLVREEKYDEALAVARQQVENGAQIIDVNMDEAMLDSVACMHRFLNLIASEPDIARVPVMIDSSKWEVIETGLKCVQGKAVVNSISMKEGEEPFRHHARLCRRYGAAMVVMAFDEQGQADSLERRKEICGRAYRILVEEEGFPPEDIIFDPNVFAVATGIDEHNHYAVDFIEGARWIRANLPHARISGGISNVSFSFRGNEPMREAIHTVFLYYAIEAGLTMGIVNAGQLGVYADLAPHLRDLVEDVILDRPE,not soluble
8,MGSDKIHHHHHHMGYSFVHPTGVTLYNPEKAFNGYTLMSIRELGAGLIDMNGNVVRLWKDLHGFPNKLLPGGYVIGSLGIRDPAYGYQDQTDLVQVDWEGNVVWKFNRLEYIEDPDNKPQWMVRQHHDYQRDGNPVGYYIPGMECRTDGGNTLILCHENLFNTKISEKRLLDDCFIEVDWEGNILWSWRASDHFEEMNFSDAAKNAMYRNPNMLENGGGMGDWLHINSMSYLGPNQWYDAGDERFHPENIIWDGREANISAIIDKKSGVIVWQMGPDFSATKELRRIGQIIGQHHVHMIPKGLPGAGNILIFDNGSWGGYGTPSNVSKDGIKADHADRSRVIELNPVTMEVVWQLTASELGYKPAGIFDYRFYSPLTSSAQRLPNGNTLITEGTGFRVFEVTADHEVVWEFWSPFTNAVAPTVYRTYRYPYSYVPHLAKPQETPIPRLDIKTFRVPGAAAGQLANQIKVAGTTGYGDKQELCVSFGEEL,not soluble
9,MTAINFNSIYTTYYRRAFLFTLSYVHNDLVAEDIVSEAIIYLWELSKKQEIPSIEAVLITYIRSKSLNYLKHLQVQENVYQNLTDKGQRELEIRISTLEACDPKEVMSEELRSKVKTLLAGMPEKTRIAFISDRLDGKSHKEIAEELGISVKGVEYHISKAVKLLRDNLKEYAPFLIFFI,not soluble
10,MAHHHHHHMGTLEAQTQGPGSMFELSDLPYEGLEPYISSHLLDRHYNGHHKTYVDVLNKLVVGTEFEGLGNESLGDIVVKAHNSGSAGRAIFNNAAQIWNHDFYWQSMKPNGGGNPPEKLREMIEHSFGSVEGFNNAFTTSGLGQFGSGWVWLVYDEDAKALKVVSTANADSPLLTQGQLPLATMDVWEHAYYLDYLNLRKKYIDVFLEHLLNWDFVLGRLEDAGVL,soluble
11,MSLERTTHQSLNGSWQFQPVAATLHVTPQLQAPAGGWKKINVPDNWYRQGHDISGYAWYQTRFALDAHNASRVAHLVFHGVDYSADVWLNDRYLGHHTGYFQPFEFDVTGLVKPGENQLRVLVNSPLEQPQDWSLHKRLVKGIFSHHDTRPGGAWSERGQEKNTGGIWAPVELQFADRAAVRQLQVTPRKQATEANPQQWVVSTEADIHHDVSHETSVTVEARILPENFKGASFAFKQSQTLQPGGNHIAFSFPVDNPALWWPYEYGHPNLYRLELSVKDASGKLLDQREQVFGVREVKVDDGLQWFINGRRMFLRGTNYIASQWLAEMTPDRYRRDLEMMQAAHINAVRVHAHVTGQDFYELCDRMGILVTQDFPLLWGYSDDPDFIAEARRQAKDMVQLLQRHPSIISWTMHNEPPWDSPWMAQKYPDYHPDINRRLDALLYEDVSKLDTLRVVRKESATKEHEWMGWYFDHWLAFSRPAPTPWSTEFGAQALPNLKSLERMFSKALLWPDTEAKWQVWEYHNFQRKETFEFAGVKQGGNIEEFIANSQHYQARLIQFAVENYRRQRYAPVSAVFQFMFVENWPSINWGIVDYWREPKAGYEALRVAYQPVLPSLEWKEGHHHHHH,not soluble
12,AHHHHHHASAKWVCKICGYIYDEDAGDPDNGISPGTKFEELPDDWVCPICGAPKSEFEKLEDGSRFIDANVFIYAILKPKRELNEKELKIKRVSKEIFNRINGGEEVVTTVVHLSEVANVLEDAANLSFAISFLKDVLIKGNVIVEEVSDRDYMESVLLAEEKGVSINDALAYILMKRKGIEEIYTFDRHFENLDVRIVNS,soluble
13,MGSDKIHHHHHHMFQWKKLGKVFTPQDINNRPWLKEFAQAPATLVFDDFVRVYFSCRPPVDEHGMYVSYSAWVDLDRNNLFNVLRVSEKPILPLGQSGEFDEFGTYPVSVVRDENIFRAYYAGWTRCESVPFNVAIGMAISDDGDVFRKAGPGPIISYSPEEPFVMSGPKIRRFNGEWQLFYIAGRRWKLVDGRAEPVYKIRMAVSSDGTNWRKINKDLISSRIEEDEAQASPDVFYANGRYHMFFCYRYSEHYRGKKHGYRIGYAWSSDLIDWHRDDEKVGIDVSETGWDSEMISYPHVFELDGKVYMAYLGDQVGRYGFGLAQLEGELR,not soluble
14,MWKAVMNAWNGTESQSKNVSNIQSYSFEDMKRIVGKHDPNVVLVDVREPSEYSIVHIPASINVPYRSHPDAFALDPLEFEKQIGIPKPDSAKELIFYCASGKRGGEAQKVASSHGYSNTSLYPGSMNDWVSHGGDKLDL,soluble
15,MAQLMKRGFSTSAALAKAQLVKTPIQVHGVEGRYAAALYSAGHKQNKLDQISTDLNNVRSVYKDNKKFQEFVLDPTLKANKKKTAIEAISTKLGLTKETGNFLGLLAENGRLNKLESVVSSFESIMRAHRGELFVQVTSAEELSSSNQKALSDALSKIGKSGQKLTVTYAVKPSILGGLVVTIGDKYVDLSIASRVKKYKDALATAI,not soluble
16,MIKILQTKSGVTKFQVLIEIAAHQPNVRQKEIAAKIGITPQAVSEYIKELVNDGLIVTEGRVRYRITKEGVEWVLENATEMKQYARFVMEDIISHVSTWTAITREEVKEGQQVYLKMDHGLLYVSSREVTGASGAIISDAAEGEDVGVTSLKGLIDLENATITICKVPRVERGGSRKVDLERLKMLADAKPYIAAIGVESLIALRKIGISPNVMFGTNESVIEAAYHGLSSLVVSVDEQVSALLNRLETENLEYELVDLTVE,not soluble
17,MGSDKIHHHHHHMNAWEVNFDGLVGLTHHYAGLSFGNEASTRHRFQVSNPRLAAKQGLLKMKALADAGFPQAVIPPHERPFIPVLRQLGFSGSDEQVLEKVARQAPHWLSSVSSASPMWVANAATIAPSADTLDGKVHLTVANLNNKFHRSLEAPVTESLLKAIFNDEEKFSVHSALPQVALLGDEGAANHNRLGGHYGEPGMQLFVYGREEGNDTRPSRYPARQTREASEAVARLNQVNPQQVIFAQQNPDVIDQGVFHNDVIAVSNRQVLFCHQQAFARQSQLLANLRARVNGFMAIEVPATQVSVSDTVSTYLFNSQLLSRDDGSMMLVLPQECREHAGVWGYLNELLAADNPISELKVFDLRESMANGGGPACLRLRVVLTEEERRAVNPAVMMNDTLFNALNDWVDRYYRDRLTAADLADPQLLREGREALDVLSQLLNLGSVYPFQREGGGNG,not soluble
18,MIETITQSQETAILESFLELVKSPYGNFASIGKLSHVLNDPDTLQKVVAVLSLTPQGKQAFEDRPMLGKIDLEQLHQLPNYTLGYMYADHMIRNQLTPPPVNENVNHPFMFLAAHLGETHDIWHVVTGCDTDKPGEVKLEAFYTAQLIPDRLFLALLAKNLLKTAMYEVELCEQILDGLTQGWMMGKRAKPLFGIEWNKLWETPLEELQTSLNIVPILEHHHHHH,soluble
19,MLIRTEAPADILTIDRLLKHAFPTDAEANLVMRLRENGKLTLSLVACTDEGEVIGHALFSPVTLNGEDLSWQGLAPLAVHEDYRRQGIGAELIKEGFESLRDFGYPVCVVLGEPNYYARQGFNAGEEMGFECAWEVPEGAFRVAELVEGQCTGRSGRIDYAPEFSEL,not soluble
20,MKIFTVCQSGLGTSFMVQMNIQQILEEVGVDTDNFQIDHTDVGSASGDMADYFFVEKTLQDALGSIPAEKIIPLNAIIDYDETKEKVLKVLDDNGIAHQ,not soluble
21,MSYLLALDAGTGSIRAVIFDLNGRQLAVGQAEWKHLSVDNVPGSMEFDLTTNWQLACQCIRQALDAARLSAADIQSVACCSMREGIVLYDRNGEAIWACANVDARASREVAELKEIHDFRFESEVYEVSGQTLALSAMPRLLWLAHHRPDIYRKAATITMISDWLAAKLSGELAVDPSNAGTTGMLDLFSRDWRPALLDMAGLRADMLSPVKETGTLLGAVTEAAAQQSGLRAGTPVVMGGGD,not soluble
22,MGSDKIHHHHHHMRLAFFGDVHGNFEALKAVLEDMENKGVDEVFCLGDLVGYGPDPEAVVQTIMEKNIKTIMGNYDDAVGYSKESCGCSYAPGRETEVGDISLKWSIENTSEKTREFLRNLPKKLSFEVEGVRFLLVHGSPLNELLEYVKPNTPPDRLKKIVESVEENVVVNGHTHLPMVKWVMGKLVLNPGSAGRPKDGDPRASYMIVDVENGTVSFEIVRVRYDVKTTVEKIARNGLPVELATVLALGQTFDMGPGKVTFTLGR,not soluble
23,MSLDTFKNKPLGDNFTLTDSNGNTITEADIRSKPSIIFFGFTMCPESCPTTLTNLDRWLTSLGADADKLGVWFVTVDPERDTPEVLHDYLSNFNHKIVGISGEPEKVHKMVDSFNIVAEKVPGTDGNYTYNHTAAIFLLKKGGKLAGVIPYKIEKNNEELRDNIAIEKLKQLVLNEGHHHHHH,soluble
